# Measurements taken from publication PMC11940065, “Conformational Analyses of the AHD1-UBAN Region of TNIP1 Highlight Key Amino Acids for Interaction with Ubiquitin” (Biomolecules, 2025).
# Experiments:
# [1] = biological target: T1, Methionine-1-linked triubiquitin (UniProt P0CG48 1-76; P0CG48 1-76; P0CG48 1-76); assay: MST; AHD1-UBAN labelled with RED-tris-NTA 2nd generation dye on its 6x-histidine tag; 16-step 2-fold serial dilution of M1-triUb from 40 µM to 610 pM; standard capillaries, Monolith X, MST power 40%, 23 °C; n = 2; conditions: both partners purified
# T1 construct: ubiquitin, unit 1 of 3, joined head to tail (M1-linked) on one chain; ubiquitin, unit 2 of 3, joined head to tail (M1-linked) on one chain; ubiquitin, unit 3 of 3, joined head to tail (M1-linked) on one chain; also called M1-triUb; M1-linked triubiquitin; source: bacterial production, purified (IMAC, SEC)
# T1 sequence (P0CG48 1-228, one chain of several): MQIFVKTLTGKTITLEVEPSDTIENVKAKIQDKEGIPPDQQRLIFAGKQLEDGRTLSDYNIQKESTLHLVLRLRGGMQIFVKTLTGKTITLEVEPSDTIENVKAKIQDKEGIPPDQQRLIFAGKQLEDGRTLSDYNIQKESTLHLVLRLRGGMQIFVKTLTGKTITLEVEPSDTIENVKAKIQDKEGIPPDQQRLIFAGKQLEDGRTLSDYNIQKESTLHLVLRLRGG
# [2] = biological target: T1, Methionine-1-linked triubiquitin; assay: far-UV circular dichroism difference spectra; 1:1 molar mixture, each protein at 10 µM, 50 mM sodium phosphate pH 8.0, room temperature; compared with the mathematical average of the two separate spectra; conditions: both partners purified
Binder,Kd [1] [µM],binding result [2]
"WT AHD1-UBAN (TNIP1 417-509) (domain or fragment, human, UniProt Q15025 417-509, looked up, TNIP1 (ABIN1), human, amino acids 417-509, the contiguous AHD1 and UBAN domains with their linker; In pET-28a(+); 15N-labelled for NMR; labelled with RED-tris-NTA dye on the His tag for MST; also called wildtype; ABIN1 AHD1-UBAN; source: E. coli Rosetta2 (DE3), purified (IMAC, SEC)) QRLNKALEEALSIQTPPSSPPTAFGSPEGAGALLRKQELVTQNELLKQQVKIFEEDFQRERSDRERMNEEKEELKKQVEKLQAQVTLSNAQLK",3.85 ± 0.89,
"AHD1-UBAN P436W (domain or fragment, human, UniProt Q15025 417-509, looked up, TNIP1 (ABIN1), human, amino acids 417-509 with P436W; source: E. coli Rosetta2 (DE3), purified (IMAC, SEC)) QRLNKALEEALSIQTPPSSWPTAFGSPEGAGALLRKQELVTQNELLKQQVKIFEEDFQRERSDRERMNEEKEELKKQVEKLQAQVTLSNAQLK",8.38 ± 0.77,
"AHD1-UBAN E425W (domain or fragment, human, UniProt Q15025 417-509, looked up, TNIP1 (ABIN1), human, amino acids 417-509 with E425W; source: E. coli Rosetta2 (DE3), purified (IMAC, SEC)) QRLNKALEWALSIQTPPSSPPTAFGSPEGAGALLRKQELVTQNELLKQQVKIFEEDFQRERSDRERMNEEKEELKKQVEKLQAQVTLSNAQLK",7.41 ± 2.28,
"AHD1-UBAN E444Q (domain or fragment, human, UniProt Q15025 417-509, looked up, TNIP1 (ABIN1), human, amino acids 417-509 with E444Q; source: E. coli Rosetta2 (DE3), purified (IMAC, SEC)) QRLNKALEEALSIQTPPSSPPTAFGSPQGAGALLRKQELVTQNELLKQQVKIFEEDFQRERSDRERMNEEKEELKKQVEKLQAQVTLSNAQLK",,binds

# The remaining lines, values ahead:
Kd [1] [µM],binding result [2],Binder
,binds,"AHD1-UBAN E425Q (domain or fragment, human, UniProt Q15025 417-509, looked up, TNIP1 (ABIN1), human, amino acids 417-509 with E425Q; source: E. coli Rosetta2 (DE3), purified (IMAC, SEC)) QRLNKALEQALSIQTPPSSPPTAFGSPEGAGALLRKQELVTQNELLKQQVKIFEEDFQRERSDRERMNEEKEELKKQVEKLQAQVTLSNAQLK"
,binds,"AHD1-UBAN E444F (domain or fragment, human, UniProt Q15025 417-509, looked up, TNIP1 (ABIN1), human, amino acids 417-509 with E444F; source: E. coli Rosetta2 (DE3), purified (IMAC, SEC)) QRLNKALEEALSIQTPPSSPPTAFGSPFGAGALLRKQELVTQNELLKQQVKIFEEDFQRERSDRERMNEEKEELKKQVEKLQAQVTLSNAQLK"
